The nature of data set [1]: Half-life determination in mouse plasma (LC-MS). In kind it is in vitro ADME. As to conditions: 37° C. How it is done:
(§1) Samples containing approximately 50 μg/ml up to and including approximately 500 μg/ml of test compound according to Formula IA or IB or II was added to 450 μl human or mouse plasma, vortexed briefly and incubated at 37° C. At various time intervals, e.g., 0, 0.5, 1, 2, 4, 6, 8, 24, 36 and 48 hours, 50 μl of the compound-plasma mixture was added to 150 μl acetonitrile in a microcentrifuge tube. The mixture was vortexed, centrifuged for 5 minutes at 10K RPM, and 135 μl of supernatant was transferred to an injection vial. The recovered supernatant was analyzed by using a liquid chromatography-mass spectrophotometer system (LC-MS) consisting of a Finnigan Deca XP® mass spectrometer with an ESI probe at the positive ion mode. HPLC separation was carried out on a Luna 3μ C8 (2)® 3×50 mm column with a gradient decreasing from 100% A to 80% B for 10 minutes at a flow rate of 0.25 ml/min. Buffer A was 0.1% acetic acid in water and buffer B was 0.1% acetic acid acetonitrile.

A short description of data set [2]: Half-life determination in human plasma (LC-MS). In kind it is in vitro ADME. As to conditions: 37° C. How it is done:
as §1

The next data set concerns the target T1, hSSTR-1 (Homo sapiens, UniProt P30872).
T1 construct: expressed in transfected cells; host or cells: CHO-K1
The data set can be described thus: Somatostatin receptor radioligand binding, hSSTR-1 (CHO-K1 membranes). The settings on record: read-out: Ki hSSTR1 ± (SEM). How it is done:
Membranes for in vitro receptor binding assays were obtained by homogenizing (Polytron setting 6, 15 sec) CHO-K1 cells expressing human somatostatin receptor subtypes hSSTR-1, hSSTR-2, hSSTR-3, hSSTR-4 or hSSTR-5 in ice-cold 50 mM Tris-HCl. The homogenized cells were centrifuged twice at 39,000 g for 10 minutes with an intermediate resuspension in fresh buffer. The final pellets were resuspended in 10 mM Tris-HCl to prepare the cell membrane homogenate for use in the binding assay.
The final assay volume was 0.3 ml.
The cell membrane homogenate was incubated with the radioligands for 90 minutes at 25° C. The incubations were terminated by rapid filtration through GF/C filters pre-soaked in 0.3% polyethylenimine using a Brandel® filtration manifold (Gaithersberg, Md., U.S.A.). Each tube and filter was washed three times with 5-ml aliquots of ice-cold buffer. Specific binding was defined as the total radioligand bound minus that bound in the presence of 1000 nM SRIF-14 (for hSSTR-1, hSSTR-3, hSSTR-4 or hSSTR-5), or 1000 nM DPhe-c(Cys-Tyr-D-Trp-Lys-Abu-Cys)-Thr-NH2 for hSSTR-2.

In another data set the target is T2, hSSTR-4 (Homo sapiens, UniProt P31391).
T2 construct: expressed in transfected cells; host or cells: CHO-K1
Briefly: Somatostatin receptor radioligand binding, hSSTR-4 (CHO-K1 membranes). As to conditions: read-out: Ki hSSTR4 ± (SEM).

The mark [3] stands for this setting: [125I-Tyr11]SRIF-14, value of 1000 indicates at least 1000.

Like-named read-outs stand apart in the source and are kept apart here. Numbered stars: 1 amine (or outer) side, 2 acyl side, 3 side chain; on linkers, the order of the positions; unused ones are H or OH. Square brackets hold non-standard residues; d marks the D form. Peptide text beside a SMILES is read from it. * marks the point of attachment. Pipz(1-CH2CO,4-CH2CH2NH) = O=C(CN1CCN(CCN[*:1])CC1)[*:2]; X1 = CC[C@@]1(O*)C(=O)OCc2c1cc1n(c2=O)Cc2cc3ccccc3nc2-1; Suc = O=C(CCC(=O)[*:2])[*:1]; Nle = CCCC[C@H](N)C(=O)O; AEEA = NCCOCCOCC(=O)O; GABA = NCCCC(=O)O; βAla = NCCC(=O)O

T1 sequence (P30872 whole entry): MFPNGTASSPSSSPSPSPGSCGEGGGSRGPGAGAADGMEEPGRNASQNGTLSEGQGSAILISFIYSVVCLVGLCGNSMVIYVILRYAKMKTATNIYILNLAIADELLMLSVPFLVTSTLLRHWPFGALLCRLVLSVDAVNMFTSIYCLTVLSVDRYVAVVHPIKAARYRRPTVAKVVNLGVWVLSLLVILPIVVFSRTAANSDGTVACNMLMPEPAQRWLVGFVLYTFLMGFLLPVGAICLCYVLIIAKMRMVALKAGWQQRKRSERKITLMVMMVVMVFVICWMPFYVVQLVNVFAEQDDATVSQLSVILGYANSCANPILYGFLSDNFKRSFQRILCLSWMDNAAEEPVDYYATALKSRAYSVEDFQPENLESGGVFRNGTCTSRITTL
T2 sequence (P31391 whole entry): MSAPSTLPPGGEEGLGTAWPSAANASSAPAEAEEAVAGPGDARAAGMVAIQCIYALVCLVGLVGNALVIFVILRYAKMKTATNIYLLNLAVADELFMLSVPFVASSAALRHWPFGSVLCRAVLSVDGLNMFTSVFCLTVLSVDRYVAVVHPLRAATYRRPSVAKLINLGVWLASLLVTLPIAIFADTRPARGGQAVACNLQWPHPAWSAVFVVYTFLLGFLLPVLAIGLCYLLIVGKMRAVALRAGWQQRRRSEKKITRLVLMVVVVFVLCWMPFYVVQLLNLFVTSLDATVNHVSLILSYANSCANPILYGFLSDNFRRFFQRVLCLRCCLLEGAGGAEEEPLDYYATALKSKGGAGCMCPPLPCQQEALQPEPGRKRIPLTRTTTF
Experimental for hSSTR-4: For the hSSTR-1, hSSTR-3, and hSSTR-4 assays, aliquots of the membrane preparations were incubated for 90 minutes at 25° C. with 0.05 nM [^125I-Tyr11]SRIF-14 in 50 mM HEPES (pH 7.4) buffer containing 0.2% BSA and 5 mM MgCl2. The final assay volume was 0.3 ml. For the hSSTR-2 and hSSTR-5 assays, [^125I]-[4-(2-hydroxyethyl)]-1-piperazinylacetyl-D-Phe-c(Cys-Tyr-D-Trp-Lys-Abu-Cys)-Thr-NH2 (0.05 nM) and [^125I]-D-Phe-c(Cys-Tyr-D-Trp-Lys-Val-Cys)-Thr-NH2 were employed as the radioligands, respectively.

For orientation: half-life means the time in which the quantity being followed falls by half. By Ki is commonly meant a measure of affinity in units of concentration, obtained from inhibition or displacement. As to `CC[C@@H]1NC(=O)[C@H](CCCCN)NC(=O)[C@@H](Cc2c[nH]c3ccccc23)NC(=O)[C@H](Cc2ccc(O)cc2)NC(=O)[C@@H](NC(=O)[C@@H](Cc2ccccc2)NC(=O)CN2CCN(CCNC(=O)COCCOCCNC(=O)COCCOCCNC(=O)COCCOCCNC(=O)COCCOCCNC(=O)CCC(=O)N[C@@H](CNC(=O)OCc3ccccc3)C(=O)O[C@]3(CC)C(=O)OCc4c3cc3n(c4=O)Cc4cc5ccccc5nc4-3)CC2)CSSC[C@@H](C(=O)N[C@H](C(N)=O)[C@@H](C)O)NC1=O` [Example 8, Camptothecin-rvDap(Z)-Suc-(Doc)4-Aepa-D-Phe-c(Cys-Tyr-D-Trp-Lys-Abu-Cys)-Thr-NH2], the half-life is 132 min in data set [1] and 42 min in data set [2]. For the same compound, the Ki at hSSTR-1 and on hSSTR-4 was at least 1000 nM each time.

As for `CC[C@@H]1NC(=O)[C@H](CCCCN)NC(=O)[C@@H](Cc2c[nH]c3ccccc23)NC(=O)[C@H](Cc2ccc(O)cc2)NC(=O)[C@@H](NC(=O)[C@@H](Cc2ccccc2)NC(=O)CN2CCN(CCNC(=O)COCCOCCNC(=O)COCCOCCNC(=O)COCCOCCNC(=O)COCCOCCNC(=O)CCC(=O)N[C@H](CNC(=O)OCc3ccccc3)C(=O)O[C@]3(CC)C(=O)OCc4c3cc3n(c4=O)Cc4cc5ccccc5nc4-3)CC2)CSSC[C@@H](C(=O)N[C@H](C(N)=O)[C@@H](C)O)NC1=O` [Example 9, Camptothecin-rvD-Dap(Z)-Suc-(Doc)4-Aepa-D-Phe-c(Cys-Tyr-D-Trp-Lys-Abu-Cys)-Thr-NH2], the values for the half-life in data set [1] and in data set [2] were 102 min and 42 min, respectively. Moreover, the Ki at hSSTR-1 and on hSSTR-4 was at least 1000 nM in each case.

Turning to `CC[C@@H]1NC(=O)[C@H](CCCCN)NC(=O)[C@@H](Cc2c[nH]c3ccccc23)NC(=O)[C@H](Cc2ccc(O)cc2)NC(=O)[C@@H](NC(=O)[C@@H](Cc2ccccc2)NC(=O)CN2CCN(CCNC(=O)COCCOCCNC(=O)COCCOCCNC(=O)COCCOCCNC(=O)COCCOCCNC(=O)CCC(=O)N[C@@H](Cc3ccccc3)C(=O)O[C@]3(CC)C(=O)OCc4c3cc3n(c4=O)Cc4cc5ccccc5nc4-3)CC2)CSSC[C@@H](C(=O)N[C@H](C(N)=O)[C@@H](C)O)NC1=O` [Example 10, Camptothecin-rvPhe-Suc-(Doc)4-Aepa-D-Phe-c(Cys-Tyr-D-Trp-Lys-Abu-Cys)-Thr-NH2], the figures for the half-life in data set [1] and in data set [2] were 144 min and 18 min, respectively. For the same compound, the Ki on hSSTR-1 and at hSSTR-4 was at least 1000 nM throughout.

In the case of `CCc1c2c(nc3ccc(O)cc13)-c1cc3c(c(=O)n1C2)COC(=O)[C@@]3(CC)OC(=O)CNC(=O)CCC(=O)NCCOCCOCC(=O)NCCOCCOCC(=O)NCCOCCOCC(=O)NCCOCCOCC(=O)NCCN1CCN(CC(=O)N[C@H](Cc2ccccc2)C(=O)N[C@H]2CSSC[C@@H](C(=O)N[C@H](C(N)=O)[C@@H](C)O)NC(=O)[C@H](CC)NC(=O)[C@H](CCCCN)NC(=O)[C@@H](Cc3c[nH]c4ccccc34)NC(=O)[C@H](Cc3ccc(O)cc3)NC2=O)CC1` [Example 19, SN38-rvGly-Suc-(Doc)4-Aepa-D-Phe-c(Cys-Tyr-D-Trp-Lys-Abu-Cys)-Thr-NH2], the figures for the half-life in data set [1] and in data set [2] were 156 min and 414 min, respectively. Besides, the Ki on hSSTR-1 is at least 1000 nM.

As to `CCCC[C@H](NC(=O)[C@H](CC(C)C)NC(=O)[C@H](Cc1c[nH]cn1)NC(=O)CCNC(=O)[C@@H](NC(=O)[C@H](C)NC(=O)[C@H](Cc1c[nH]c2ccccc12)NC(=O)[C@H](CCC(N)=O)NC(=O)[C@@H](Cc1ccc(O)cc1)NC(=O)[C@@H](CO)NC(=O)[C@H](CCCCN)NC(=O)COCCOCCNC(=O)COCCOCCNC(=O)COCCOCCNC(=O)COCCOCCNC(=O)CCC(=O)NCC(=O)O[C@]1(CC)C(=O)OCc2c1cc1n(c2=O)Cc2cc3ccccc3nc2-1)C(C)C)C(N)=O` [Example 25, Camptothecin-rvGly-Suc-(Doc)4-Lys-D-Ser-D-Tyr-Gln-Trp-Ala-Val-β-Ala-His-Leu-Nle-NH2] ({X1-Gly-Suc-AEEA-AEEA-AEEA-AEEA}-K[dS][dY]QWAV[βAla]HL[Nle]-NH2), the half-life is 156 min in data set [1] and 144 min in data set [2].

On to `CCCC[C@H](NC(=O)[C@H](CC(C)C)NC(=O)[C@H](Cc1c[nH]cn1)NC(=O)CCNC(=O)[C@@H](NC(=O)[C@H](C)NC(=O)[C@H](Cc1c[nH]c2ccccc12)NC(=O)[C@H](CCC(N)=O)NC(=O)[C@@H](Cc1ccc(O)cc1)NC(=O)[C@@H](C)NC(=O)[C@H](CCCNC(=N)N)NC(=O)COCCOCCNC(=O)COCCOCCNC(=O)COCCOCCNC(=O)COCCOCCNC(=O)CCC(=O)NCC(=O)O[C@]1(CC)C(=O)OCc2c1cc1n(c2=O)Cc2cc3ccccc3nc2-1)C(C)C)C(N)=O` [Example 26, Camptothecin-rvGly-Suc-(Doc)4-Arg-D-Ala-D-Tyr-Gln-Trp-Ala-Val-β-Ala-His-Leu-Nle-NH2] ({X1-Gly-Suc-AEEA-AEEA-AEEA-AEEA}-R[dA][dY]QWAV[βAla]HL[Nle]-NH2), for which the half-life in data set [1] was 108 min; in data set [2], 84 min.

Turning to `CCCC[C@H](NC(=O)[C@H](CC(C)C)NC(=O)[C@H](Cc1c[nH]cn1)NC(=O)CCNC(=O)[C@@H](NC(=O)[C@H](C)NC(=O)[C@H](Cc1c[nH]c2ccccc12)NC(=O)[C@H](CCC(N)=O)NC(=O)[C@@H](Cc1ccc(O)cc1)NC(=O)[C@@H](CO)NC(=O)CCCNC(=O)CN1CCN(CCNC(=O)COCCOCCNC(=O)COCCOCCNC(=O)COCCOCCNC(=O)COCCOCCNC(=O)CCC(=O)NCC(=O)O[C@]2(CC)C(=O)OCc3c2cc2n(c3=O)Cc3cc4ccccc4nc3-2)CC1)C(C)C)C(N)=O` [Example 28, Camptothecin-rvGly-Suc-(Doc)4-Aepa-Gaba-D-Ser-D-Tyr-Gln-Trp-Ala-Val-β-Ala-His-Leu-Nle-NH2] ({X1-Gly-Suc-AEEA-AEEA-AEEA-AEEA}-[Pipz(1-CH2CO,4-CH2CH2NH)][GABA][dS][dY]QWAV[βAla]HL[Nle]-NH2), the values for the half-life in data set [1] and in data set [2] were 174 min and 114 min, respectively.

Turning to `CC[C@@H]1NC(=O)[C@H](CCCCN)NC(=O)[C@@H](Cc2c[nH]c3ccccc23)NC(=O)[C@H](Cc2ccc(O)cc2)NC(=O)[C@@H](NC(=O)[C@@H](Cc2ccccc2)NC(=O)CN2CCN(CCNC(=O)COCCOCCOCCNC(=O)COCCOCCOCCNC(=O)COCCOCCOCCNC(=O)CCC(=O)N[C@H](CC(=O)O)C(=O)O[C@]3(CC)C(=O)OCc4c3cc3n(c4=O)Cc4cc5ccccc5nc4-3)CC2)CSSC[C@@H](C(=O)N[C@H](C(N)=O)[C@@H](C)O)NC1=O` [Example 29, Camptothecin-rvDAsp-Suc-(Peg3)3-Aepa-DPhe-c(Cys-Tyr-DTrp-Lys-Abu-Cys)-Thr-NH2], the half-life in data set [1] is 2650 min; in data set [2] it was 558 min. In addition, the Ki at hSSTR-1 was at least 1000 nM.

Turning to `CC[C@@H]1NC(=O)[C@H](CCCCN)NC(=O)[C@@H](Cc2c[nH]c3ccccc23)NC(=O)[C@H](Cc2ccc(O)cc2)NC(=O)[C@@H](NC(=O)[C@@H](Cc2ccccc2)NC(=O)CN2CCN(CCNC(=O)CCOCCOCCOCCOCCOCCOCCOCCOCCOCCOCCOCCOCCNC(=O)CCC(=O)N[C@H](CC(=O)O)C(=O)O[C@]3(CC)C(=O)OCc4c3cc3n(c4=O)Cc4cc5ccccc5nc4-3)CC2)CSSC[C@@H](C(=O)N[C@H](C(N)=O)[C@@H](C)O)NC1=O` [Example 30, Camptothecin-rvDAsp-Suc-Peg11-Aepa-DPhe-c(Cys-Tyr-DTrp-Lys-Abu-Cys)-Thr-NH2], the Ki on hSSTR-1 was at least 1000 nM.

Turning to `CC[C@@H]1NC(=O)[C@H](CCCCN)NC(=O)[C@@H](Cc2c[nH]c3ccccc23)NC(=O)[C@H](Cc2ccc(O)cc2)NC(=O)[C@@H](NC(=O)[C@@H](Cc2ccccc2)NC(=O)CN2CCN(CCNC(=O)COCCOCCNC(=O)COCCOCCNC(=O)COCCOCCNC(=O)COCCOCCNC(=O)CCC(=O)N[C@H](CCC(=O)O)C(=O)O[C@]3(CC)C(=O)OCc4c3cc3n(c4=O)Cc4cc5ccccc5nc4-3)CC2)CSSC[C@@H](C(=O)N[C@H](C(N)=O)[C@@H](C)O)NC1=O` [Example 31, Camptothecin-rvDGlu-Suc-(Doc)4-Aepa-DPhe-c(Cys-Tyr-DTrp-Lys-Abu-Cys)-Thr-NH2], the Ki on hSSTR-1 is at least 1000 nM.

Consider “Camptothecin-rvD-Glu-Suc-(Doc)4-Aepa-D-Phe-c(Cys-Tyr-D-Trp-Lys-Abu-Cys)-Thr-NH2 and Camptothecin-rvGlu-Suc-(Doc)4-Aepa-D-Phe-c(Cys-Tyr-D-Trp-Lys-Abu-Cys)-Thr-NH2 [Example 6]”, for which the Ki on hSSTR-1 (setting [3]) and at hSSTR-4 (setting [3]) was at least 1000 nM in each case.
